# Where a SMILES comes first, the peptide text is derived from it. Bridges are numbered along the chain shown (N, C = ends). Roman numbers before positions name the chains, in order. Where no end group is shown, it is not given here. The star is where a group is joined. Chenodeoxycholyl = C[C@H](CCC(=O)*)[C@H]1CC[C@H]2[C@@H]3[C@H](O)C[C@@H]4C[C@H](O)CC[C@]4(C)[C@H]3CC[C@]12C; Cholyl = C[C@H](CCC(=O)*)[C@H]1CC[C@H]2[C@@H]3[C@H](O)C[C@@H]4C[C@H](O)CC[C@]4(C)[C@H]3C[C@H](O)[C@]12C
# What was measured:
# [1] = tested on: JIMT1 cells (breast cancer cell line); assay: Cell cytotoxicity assay (PrestoBlue); assay type: cell-based; details: for toxicity of dimer hydrogels compared with monomers: cells treated three days, PrestoBlue, dimers versus monomers
# Experimental: 5000 JIMT1 cells (breast cancer cell line) per well (96-well plate) were plated. After one day, cells were treated with the different steroid acid-peptide conjugates or hydrogels for three days. Cell survival was determined by PrestoBlue™ following the manufacturer's protocol.
# Hydrogels are commonly used for drug delivery and in vivo applications, and therefore assessing their safety profiles is highly pertinent. Cytotoxicity of hydrogels was evaluated via a cytotoxicity assay by incubating cells with hydrogels formed by monomers or steroid acid-peptide conjugates, as described in Example 1.
# [2] = Hydrogel formation of steroid acid-peptide monomer conjugates upon resuspension in solvent; assay type: physicochemical; details: for hydrogel formation: 6.67 mg/ml, cell medium (complete DMEM with human cells), 2 hours of incubation
# Experimental: Specific hydrogel formation was conducted by resuspending the powder of each steroid acid-peptide monomer or dimer conjugate in phosphate buffered saline (PBS) 1X (pH 7.4), pure water, complete cell medium (DMEM), DMSO, or alcohol:water mixtuLes (e.g., methanol:water (40:60)) at room temperature or 37° C. at a concentration between 6-30 mg/mL.
# Hydrogel formation was evaluated upon dissolution of the different peptide or steroid acid-peptide conjugates described in FIG. 1 in different solvents. […] Hydrogel structure (soft vs. hard) and color/clarity (translucent vs. opaque) varied among the different conditions. […] At concentrations lower than 10 mg/mL, all steroid acid-hnRNPA1 NLS conjugates tested formed liquid droplets in PBS at room temperature. Monomers of GWG-SV40NLS conjugated to steroid acids were also shown to form hydrogels (data not shown).
# [3] = monomers, room temperature and 37° C.
molecule,measurement,setting,value
CSCC[C@H](NC(=O)[C@@H]1CCCN1C(=O)CNC(=O)[C@H](Cc1ccccc1)NC(=O)[C@H](CC(N)=O)NC(=O)[C@H](CO)NC(=O)[C@H](CS)NC(=O)CC[C@@H](C)[C@H]1CC[C@H]2[C@@H]3[C@H](O)C[C@@H]4C[C@H](O)CC[C@]4(C)[C@H]3CC[C@]12C)C(=O)N[C@@H](CCCCN)C(=O)NCC(=O)NCC(=O)N[C@@H](CC(N)=O)C(=O)N[C@@H](Cc1ccccc1)C(=O)NCC(=O)NCC(=O)N[C@@H](CCCNC(=N)N)C(=O)N[C@@H](CO)C(=O)N[C@@H](CO)C(=O)NCC(=O)N1CCC[C@H]1C(=O)N[C@@H](Cc1ccc(O)cc1)C(N)=O [CDCA-hnRNPA1 M9 NLS] (Chenodeoxycholyl-CSNFGPMKGGNFGGRSSGPY-NH2),concentrations at which viability of cells was reduced,"[1]; JIMT1 cells, three days treatment, hydrogels formed by monomers",higher than 10 μg/mL
CSCC[C@H](NC(=O)[C@@H]1CCCN1C(=O)CNC(=O)[C@H](Cc1ccccc1)NC(=O)[C@H](CC(N)=O)NC(=O)[C@H](CO)NC(=O)[C@H](CSSC[C@H](NC(=O)CC[C@@H](C)[C@H]1CC[C@H]2[C@@H]3[C@H](O)C[C@@H]4C[C@H](O)CC[C@]4(C)[C@H]3CC[C@]12C)C(=O)N[C@@H](CO)C(=O)N[C@@H](CC(N)=O)C(=O)N[C@@H](Cc1ccccc1)C(=O)NCC(=O)N1CCC[C@H]1C(=O)N[C@@H](CCSC)C(=O)N[C@@H](CCCCN)C(=O)NCC(=O)NCC(=O)N[C@@H](CC(N)=O)C(=O)N[C@@H](Cc1ccccc1)C(=O)NCC(=O)NCC(=O)N[C@@H](CCCNC(=N)N)C(=O)N[C@@H](CO)C(=O)N[C@@H](CO)C(=O)NCC(=O)N1CCC[C@H]1C(=O)N[C@@H](Cc1ccc(O)cc1)C(N)=O)NC(=O)CC[C@@H](C)[C@H]1CC[C@H]2[C@@H]3[C@H](O)C[C@@H]4C[C@H](O)CC[C@]4(C)[C@H]3CC[C@]12C)C(=O)N[C@@H](CCCCN)C(=O)NCC(=O)NCC(=O)N[C@@H](CC(N)=O)C(=O)N[C@@H](Cc1ccccc1)C(=O)NCC(=O)NCC(=O)N[C@@H](CCCNC(=N)N)C(=O)N[C@@H](CO)C(=O)N[C@@H](CO)C(=O)NCC(=O)N1CCC[C@H]1C(=O)N[C@@H](Cc1ccc(O)cc1)C(N)=O [Dimerized CDCA-hnRNPA1 M9 NLS] (I: Chenodeoxycholyl-CSNFGPMKGGNFGGRSSGPY-NH2 / II: Chenodeoxycholyl-CSNFGPMKGGNFGGRSSGPY-NH2; disulfide I:1-II:1),cell viability,"[1]; JIMT1 cells, three days treatment, all concentrations tested up to 100 μg/mL",Viability was maintained
CC[C@H](C)[C@H](NC(=O)CNC(=O)[C@H](CSSC[C@H](NC(=O)CC[C@@H](C)[C@H]1CC[C@H]2[C@@H]3[C@H](O)C[C@@H]4C[C@H](O)CC[C@]4(C)[C@H]3C[C@H](O)[C@]12C)C(=O)NCC(=O)N[C@H](C(=O)NCC(=O)N[C@@H](C)C(=O)N[C@H](C(=O)N[C@@H](CC(C)C)C(=O)N[C@@H](CCCCN)C(=O)N[C@H](C(=O)N[C@@H](CC(C)C)C(=O)N[C@H](C(=O)N[C@H](C(=O)NCC(=O)N[C@@H](CC(C)C)C(=O)N1CCC[C@H]1C(=O)N[C@@H](C)C(=O)N[C@@H](CC(C)C)C(=O)N[C@H](C(=O)N[C@@H](CO)C(=O)N[C@@H](Cc1c[nH]c2ccccc12)C(=O)N[C@H](C(=O)N[C@@H](CCCCN)C(=O)N[C@@H](CCCNC(=N)N)C(=O)N[C@@H](CCCCN)C(=O)N[C@@H](CCCNC(=N)N)C(=O)N[C@@H](CCC(N)=O)C(=O)N[C@@H](CCC(N)=O)C(N)=O)[C@@H](C)CC)[C@@H](C)CC)[C@@H](C)O)[C@@H](C)O)C(C)C)C(C)C)[C@@H](C)CC)NC(=O)CC[C@@H](C)[C@H]1CC[C@H]2[C@@H]3[C@H](O)C[C@@H]4C[C@H](O)CC[C@]4(C)[C@H]3C[C@H](O)[C@]12C)C(=O)NCC(=O)N[C@@H](C)C(=O)N[C@H](C(=O)N[C@@H](CC(C)C)C(=O)N[C@@H](CCCCN)C(=O)N[C@H](C(=O)N[C@@H](CC(C)C)C(=O)N[C@H](C(=O)N[C@H](C(=O)NCC(=O)N[C@@H](CC(C)C)C(=O)N1CCC[C@H]1C(=O)N[C@@H](C)C(=O)N[C@@H](CC(C)C)C(=O)N[C@H](C(=O)N[C@@H](CO)C(=O)N[C@@H](Cc1c[nH]c2ccccc12)C(=O)N[C@H](C(=O)N[C@@H](CCCCN)C(=O)N[C@@H](CCCNC(=N)N)C(=O)N[C@@H](CCCCN)C(=O)N[C@@H](CCCNC(=N)N)C(=O)N[C@@H](CCC(N)=O)C(=O)N[C@@H](CCC(N)=O)C(N)=O)[C@@H](C)CC)[C@@H](C)CC)[C@@H](C)O)[C@@H](C)O)C(C)C)C(C)C [dimerized CA-Melittin],toxicity of dimer hydrogels compared with monomers,[1],significantly less toxic
CSCC[C@H](NC(=O)[C@H](CSSC[C@H](NC(=O)CC[C@@H](C)[C@H]1CC[C@H]2[C@@H]3[C@H](O)C[C@@H]4C[C@H](O)CC[C@]4(C)[C@H]3C[C@H](O)[C@]12C)C(=O)N[C@@H](CCSC)C(=O)NCC(=O)N[C@@H](CCCNC(=N)N)C(=O)N[C@H](C(=O)N[C@@H](CCCNC(=N)N)C(=O)N[C@H](C(=O)N[C@@H](CCCCN)C(=O)N[C@H](C(=O)N[C@H](C(=O)N[C@@H](CCCCN)C(=O)N[C@@H](CCCCN)C(=O)N[C@@H](C)C(=O)N[C@@H](C)C(=O)NCC(=O)NCC(N)=O)C(C)C)[C@@H](C)O)[C@@H](C)O)C(C)C)NC(=O)CC[C@@H](C)[C@H]1CC[C@H]2[C@@H]3[C@H](O)C[C@@H]4C[C@H](O)CC[C@]4(C)[C@H]3C[C@H](O)[C@]12C)C(=O)NCC(=O)N[C@@H](CCCNC(=N)N)C(=O)N[C@H](C(=O)N[C@@H](CCCNC(=N)N)C(=O)N[C@H](C(=O)N[C@@H](CCCCN)C(=O)N[C@H](C(=O)N[C@H](C(=O)N[C@@H](CCCCN)C(=O)N[C@@H](CCCCN)C(=O)N[C@@H](C)C(=O)N[C@@H](C)C(=O)NCC(=O)NCC(N)=O)C(C)C)[C@@H](C)O)[C@@H](C)O)C(C)C [dimerized CA-NLS1 RPS17] (I: Cholyl-CMGRVRTKTVKKAAGG-NH2 / II: Cholyl-CMGRVRTKTVKKAAGG-NH2; disulfide I:1-II:1),toxicity of dimer hydrogels compared with monomers,[1],significantly less toxic
CA-Melittin: cholic acid conjugated to the peptide melittin (SEQ ID NO: 16),hydrogel formation in monomer form,[2],not able to form a hydrogel
"CA-NLS1 RPS17: cholic acid conjugated to NLS1 RPS17 peptide (SEQ ID NO: 9) (MGRVRTKTVKKAAGG; also: cholic acid conjugate, site not given here)",hydrogel formation in monomer form,[2],not observed to form a hydrogel
"GCDCA-hnRNPA1 NLS: glycochenodeoxycholic acid (GCDCA) conjugated to hnRNPA1 M9 NLS peptide (SEQ ID NO: 4) (SNFGPMKGGNFGGRSSGPY; also: glycochenodeoxycholic acid (GCDCA) conjugate, site not given here)",time after which hydrogel formation was induced,"[2]; monomer, final concentration 6.67 mg/mL, complete DMEM containing human cells, room temperature and 37° C.",30 min
same,hydrogel formation,[2]; [3],formed a hydrogel
"GDCA-hnRNPA1 NLS: glycodeoxycholic acid (GDCA) conjugated to hnRNPA1 M9 NLS peptide (SEQ ID NO: 4) (SNFGPMKGGNFGGRSSGPY; also: glycodeoxycholic acid (GDCA) conjugate, site not given here)",hydrogel formation,[2]; [3],formed a hydrogel
"GUDCA-hnRNPA1 NLS: glycoursodeoxycholic acid (GUDCA) conjugated to hnRNPA1 M9 NLS peptide (SEQ ID NO: 4) (SNFGPMKGGNFGGRSSGPY; also: glycoursodeoxycholic acid (GUDCA) conjugate, site not given here)",incubation time after which a hydrogel formed,"[2]; 20 mg/ml in pure water, room temperature",1 to 3 h
same,hydrogel formation,[2]; [3],formed a hydrogel
"LCA-hnRNPA1 NLS: lithocholic acid (LCA) conjugated to hnRNPA1 M9 NLS peptide (SEQ ID NO: 4) (SNFGPMKGGNFGGRSSGPY; also: lithocholic acid (LCA) conjugate, site not given here)",hydrogel formation following resuspension,"[2]; monomers, 25 mg/mL in PBS 1X (pH 7.4), room temperature",a hydrogel spontaneously formed within a matter of seconds

# From patent publication US20240368354A1, “STEROID ACID-BASED HYDROGELS” (priority 2021, published 2024)
